Substrate in this series: O=CC(O)COP(=O)(O)O
In words: purified protein. It is filed as biochemical, Saccharomyces cerevisiae. Particulars: 1 mM ribose-5-phosphate, 10 mM ammonium sulfate (20 mM NH4), 50 mM Tris-HCl pH 8.0, 37 °C, 85 µM Snz3p, no glutaminase subunit, racemic D/L substrate.

B1: Snz3p (Saccharomyces cerevisiae S288C) (protein)
chain: MSEFKVKTGLAQMLKGGVIMDVVTPEQAIIAERAGACAVMALERIPADMRKSGQVCRMSDPRMIKEIMEAVSIPVMAKVRIGHFVEAQILEELQVDYIDESEVLTPADWTHHIEKHNFKVPFVCGAKDLGEALRRINEGAAMIRTKGEAGTGDVSEAVKHITKIKAEIQQYKENLKTESDFAAKATELRVPVDLLKTTLSEGKLPVVNFAAGGVATPADAALLMQLGCEGVFVGSGIFKSSDPEKLACAIVEATTHYDNPAKLLQVSSDLGDLMGGISIQSINEAGGKNGARLSEIGW
notes: full-length SNZ3 in pTEV5 (NheI/NcoI), His6 tag removed with rTEV, expressed in E. coli BL21-AI; assayed without Sno glutaminase subunit
For B1, the Michaelis-Menten constant (Km) came to 290 ± 30 µM and the turnover number (kcat) was 0.0007 s⁻¹.

By Km is commonly meant the substrate concentration at which the rate is half of its maximum. One may read the kcat as the number of substrate molecules converted per active site and unit of time at saturation.

Source of the values: article PMC6385983, “SNZ3 Encodes a PLP Synthase Involved in Thiamine Synthesis in Saccharomyces cerevisiae” (G3: Genes|Genomes|Genetics, 2018).
